Assay results taken from publication PMC5662751, “Post-transcriptional gene silencing mediated by microRNAs is controlled by nucleoplasmic Sfpq”.

T1: Sfpq wild-type (human, UniProt P23246 1-707)
T1 sequence: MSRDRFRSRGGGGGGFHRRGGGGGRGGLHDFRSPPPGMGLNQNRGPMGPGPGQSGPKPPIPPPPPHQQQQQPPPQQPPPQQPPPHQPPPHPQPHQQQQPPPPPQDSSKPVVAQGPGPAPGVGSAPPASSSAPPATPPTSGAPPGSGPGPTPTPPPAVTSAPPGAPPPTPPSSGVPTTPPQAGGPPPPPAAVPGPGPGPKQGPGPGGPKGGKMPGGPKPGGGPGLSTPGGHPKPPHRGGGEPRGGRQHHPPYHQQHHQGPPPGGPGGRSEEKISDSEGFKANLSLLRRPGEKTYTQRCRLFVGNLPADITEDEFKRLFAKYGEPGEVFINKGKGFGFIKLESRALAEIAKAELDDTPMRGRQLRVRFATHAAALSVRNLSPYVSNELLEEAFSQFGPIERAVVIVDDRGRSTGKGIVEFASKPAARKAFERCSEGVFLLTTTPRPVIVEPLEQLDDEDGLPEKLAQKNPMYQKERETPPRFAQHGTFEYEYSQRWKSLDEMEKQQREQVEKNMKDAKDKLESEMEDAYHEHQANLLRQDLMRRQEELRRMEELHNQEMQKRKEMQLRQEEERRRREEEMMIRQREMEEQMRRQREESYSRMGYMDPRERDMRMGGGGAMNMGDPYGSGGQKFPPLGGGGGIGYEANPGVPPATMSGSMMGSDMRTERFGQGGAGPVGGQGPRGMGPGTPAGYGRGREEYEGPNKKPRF


Molecular target: T1, Sfpq wild-type
Experiment: UV crosslinking; 100 nM Sfpq; EMSA: 75 mM Hepes pH 7.9, 150 mM NaCl, 75 mM KCl, 0.1 mM EDTA, 5 mM DTT, 5 mM PMSF, 15% glycerol, 15 min, room temperature; AFM: 120 mM NaCl, 24 mM Tris-HCl pH
Conditions: protein: recombinant, tags: 6xHis (pET15b), chain copies: 2, label: 32P

Binder | binding result | binding result (two copies of CUGUA (contains CUGU))
CCCCGCCCCG (ssRNA) [Sfpq negative RNA oligo (CCCCG x2)] | no binding | –
CUGUACUGUA (ssRNA) [CUGU/CUGUA x2 oligo] | – | binds
